According to patent publication US20180327473A1 (published 2018):

T1: human alpha fetoprotein (hAFP158) peptide on HLA-A2 (human)
T1 peptide: FMNKFIYEI

B1: mTCR-1 (TCR, V domains shown)
Valpha: QQKVQQSPESLIVPEGGMASLNCTSSDRNVDYFWWYRQHSGKSPKMLMSIFSNGEKEEGRFTVHLNKASLHTSLHIRDSQPSDSALYLCAASITNAYKVIFGKGTHLHVLP
Vbeta: EAAVTQSPRNKVTVTGGNVTLSCRQTNSHNYMYWYRQDTGHGLRLIHYSYGAGNLQIGDVPDGYKATRTTQEDFFLLLELASPSQTSLYFCASSDAGTSQNTLYFGAGTRLSVL
B2: mTCR-6 (TCR, V domains shown)
Valpha: QQKVQQSPESLIVPEGGMASLNCTSSDRNVDYFWWYRQHSGKSPKMLMSIFSNGEKEEGRFTVHLNKASLHTSLHIRDSQPSDSALYLCAASMINAYKVIFGKGTHLHVLP
Vbeta: EAAVTQSPRNKVTVTGGNVTLSCRQTNSHNYMYWYRQDTGHGLRLIHYSYGAGNLQIGDVPDGYKATRTTQEDFFLLLELASPSQTSLYFCASSDAGVSQNTLYFGAGTRLSVL
B3: mTCR-17 (TCR, V domains shown)
Valpha: QQKVQQSPESLIVPEGGMASLNCTSSDRNVDYFWWYRQHSGKSPKMLMSIFSNGEKEEGRFTVHLNKASLHTSLHIRDSQPSDSALYLCAASMTGGYKVVFGSGTRLLVSP
Vbeta: EAAVTQSPRNKVTVTGGNVTLSCRQTNSHNYMYWYRQDTGHGLRLIHYSYGAGNLQIGDVPDGYKATRTTQEDFFLLLELASPSQTSLYFCASSDAGTSQNTLYFGAGTRLSVL
B4: mTCR-8 (TCR, V domains shown)
Valpha: QQKVQQSPESLIVPEGGMASLNCTSSDRNVDYFWWYRQHSGKSPKMLMSIFSNGEKEEGRFTVHLNKASLHTSLHIRDSQPSDSALYLCAASISGGYKVVFGSGTRLLVSP
Vbeta: EAAVTQSPRNKVTVTGGNVTLSCRQTNSHNYMYWYRQDTGHGLRLIHYSYGAGNLQIGDVPDGYKATRTTQEDFFLLLELASPSQTSLYFCASSDAGTSQNTLYFGAGTRLSVL
B5: mTCR-10 (TCR, V domains shown)
Valpha: QQKVQQSPESLIVPEGGMASLNCTSSDRNVDYFWWYRQHSGKSPKMLMSIFSNGEKEEGRFTVHLNKASLHTSLHIRDSQPSDSALYLCAASIVGGYKVVFGSGTRLLVSP
Vbeta: EAAVTQSPRNKVTVTGGNVTLSCRQTNSHNYMYWYRQDTGHGLRLIHYSYGAGNLQIGDVPDGYKATRTTQEDFFLLLELASPSQTSLYFCASSDHGTGQNTLYFGAGTRLSVL
B6: mTCR-11 (TCR, V domains shown)
Valpha: QQKVQQSPESLIVPEGGMASLNCTSSDRNVDYFWWYRQHSGKSPKMLMSIFSNGEKEEGRFTVHLNKASLHTSLHIRDSQPSDSALYLCAASKTGGYKVVFGSGTRLLVSP
Vbeta: EAAVTQSPRNKVTVTGGNVTLSCRQTNSHNYMYWYRQDTGHGLRLIHYSYGAGNLQIGDVPDGYKATRTTQEDFFLLLELASPSQTSLYFCASSDAGTSQNTLYFGAGTRLSVL
B7: mTCR-2 (TCR, V domains shown)
Valpha: QQKVQQSPESLIVPEGGMASLNCTSSDRNVDYFWWYRQHSGKSPKMLMSIFSNGEKEEGRFTVHLNKASLHTSLHIRDSQPSDSALYLCAASTVNAYKVIFGKGTHLHVLP
Vbeta: EAAVTQSPRNKVTVTGGNVTLSCRQTNSHNYMYWYRQDTGHGLRLIHYSYGAGNLQIGDVPDGYKATRTTQEDFFLLLELASPSQTSLYFCASSDAGTSQNTLYFGAGTRLSVL
B8: mTCR-3 (TCR, V domains shown)
Valpha: QQKVQQSPESLIVPEGGMASLNCTSSDRNVDYFWWYRQHSGKSPKMLMSIFSNGEKEEGRFTVHLNKASLHTSLHIRDSQPSDSALYLCAASMAGGYKVVFGSGTRLLVSP
Vbeta: EAAVTQSPRNKVTVTGGNVTLSCRQTNSHNYMYWYRQDTGHGLRLIHYSYGAGNLQIGDVPDGYKATRTTQEDFFLLLELASPSQTSLYFCASSDAGTAQNTLYFGAGTRLSVL
B9: mTCR-38 (TCR, V domains shown)
Valpha: QQKVQQSPESLIVPEGGMASLNCTSSDRNVDYFWWYRQHSGKSPKMLMSIFSNGEKEEGRFTVHLNKASLHTSLHIRDSQPSDSALYLCAATLTGGYKVVFGSGTRLLVSP
Vbeta: EAAVTQSPRNKVTVTGGNVTLSCRQTNSHNYMYWYRQDTGHGLRLIHYSYGAGNLQIGDVPDGYKATRTTQEDFFLLLELASPSQTSLYFCASSDAGTSQNTLYFGAGTRLSVL

Molecular target: T1, human alpha fetoprotein (hAFP158) …
Test: multimer staining

Binding result, recognises:
B1
B2
B3
B4
B5
B6
B7
B8
B9
